The test system of this data set is Escherichia coli TOP10. The data set can be described thus: shrunken log2 fold change of peptide-encoding DNA abundance (4.5 h post-induction vs induction); higher = less antimicrobial activity (less host growth inhibition). The settings on record: time post-induction: 4.5 h; library: site-saturation at positions 5, 18, 19, 20.
For the sequence RRIRKRPPRLPRPRPRPRMAPRP, the “shrunken log2 fold change” value came out at 0.818.

Turning to RRIRYRPPRLPRPRPRPMQPPRP, the “shrunken log2 fold change” value was -0.0124.

Consider RRIRLRPPRLPRPRPRPHSRPRP, for which the “shrunken log2 fold change” value is -0.0563.

Turning to RRIRRRPPRLPRPRPRPPHPPRP, the “shrunken log2 fold change” value stood at 0.886.

Take RRIRNRPPRLPRPRPRPWCDPRP: the “shrunken log2 fold change” value is -0.365.

Take RRIRWRPPRLPRPRPRPTNLPRP: the “shrunken log2 fold change” value was -0.0698.

Turning to RRIRGRPPRLPRPRPRPLIKPRP, the “shrunken log2 fold change” value was found to be 0.469.

In the case of RRIRRRPPRLPRPRPRPCFSPRP, the “shrunken log2 fold change” value was -0.14.

For RRIRARPPRLPRPRPRPMVLPRP, the “shrunken log2 fold change” value is -0.118.

With RRIRARPPRLPRPRPRPWVTPRP, the “shrunken log2 fold change” value is -0.127.

Regarding RRIRFRPPRLPRPRPRPMRPPRP, the “shrunken log2 fold change” value was 0.654.

Regarding RRIRFRPPRLPRPRPRPPDSPRP, the “shrunken log2 fold change” value was 0.0539.

Turning to RRIRLRPPRLPRPRPRPTCSPRP, the “shrunken log2 fold change” value is -0.0337.

Take RRIRARPPRLPRPRPRPAHRPRP: the “shrunken log2 fold change” value amounted to 0.326.

As for RRIRTRPPRLPRPRPRPLHLPRP, the “shrunken log2 fold change” value worked out at 0.053.

Take RRIRMRPPRLPRPRPRPASTPRP: the “shrunken log2 fold change” value was found to be 0.323.

Take RRIRQRPPRLPRPRPRPNWDPRP: the “shrunken log2 fold change” value is 0.126.

For the sequence RRIRPRPPRLPRPRPRPLCGPRP, the “shrunken log2 fold change” value is 0.623.

For RRIRMRPPRLPRPRPRPLPIPRP, the “shrunken log2 fold change” value is -0.0881.

On to RRIRNRPPRLPRPRPRPSFDPRP, for which the “shrunken log2 fold change” value is -0.427.

On to RRIRNRPPRLPRPRPRPVALPRP, for which the “shrunken log2 fold change” value is -0.0331.

Take RRIRQRPPRLPRPRPRPNSAPRP: the “shrunken log2 fold change” value is -0.173.

Consider RRIRIRPPRLPRPRPRPFTYPRP, for which the “shrunken log2 fold change” value is -0.00992.

On to RRIRMRPPRLPRPRPRPPHQPRP, for which the “shrunken log2 fold change” value worked out at 0.634.

Regarding RRIRIRPPRLPRPRPRPDAGPRP, the “shrunken log2 fold change” value was determined as 0.158.

Take RRIRGRPPRLPRPRPRPMIRPRP: the “shrunken log2 fold change” value was 0.147.

Consider RRIRRRPPRLPRPRPRPSDLPRP, for which the “shrunken log2 fold change” value was found to be 0.0119.

With RRIRERPPRLPRPRPRPFYVPRP, the “shrunken log2 fold change” value was -0.189.

For the sequence RRIRKRPPRLPRPRPRPYNEPRP, the “shrunken log2 fold change” value is -0.254.

Consider RRIRYRPPRLPRPRPRPFYDPRP, for which the “shrunken log2 fold change” value is -0.708.

For RRIRQRPPRLPRPRPRPCSMPRP, the “shrunken log2 fold change” value is -0.273.

As for RRIRRRPPRLPRPRPRPPTMPRP, the “shrunken log2 fold change” value turned out to be 0.374.

In the case of RRIRLRPPRLPRPRPRPGAWPRP, the “shrunken log2 fold change” value turned out to be 0.0481.

With RRIRHRPPRLPRPRPRPIPRPRP, the “shrunken log2 fold change” value is -0.0447.

Take RRIRKRPPRLPRPRPRPAPFPRP: the “shrunken log2 fold change” value came out at 0.659.

For RRIRQRPPRLPRPRPRPNQFPRP, the “shrunken log2 fold change” value was 0.0334.

Regarding RRIRMRPPRLPRPRPRPYEEPRP, the “shrunken log2 fold change” value is -0.228.

With RRIRWRPPRLPRPRPRPDFAPRP, the “shrunken log2 fold change” value was determined as 0.49.

For the sequence RRIRCRPPRLPRPRPRPRPEPRP, the “shrunken log2 fold change” value is 0.44.

As for RRIRHRPPRLPRPRPRPQQPPRP, the “shrunken log2 fold change” value was found to be 0.176.

With RRIRARPPRLPRPRPRPCDDPRP, the “shrunken log2 fold change” value was -0.0166.

With RRIRLRPPRLPRPRPRPGKWPRP, the “shrunken log2 fold change” value turned out to be 0.121.

In the case of RRIRMRPPRLPRPRPRPNGDPRP, the “shrunken log2 fold change” value is 0.297.

On to RRIRMRPPRLPRPRPRPYWHPRP, for which the “shrunken log2 fold change” value is -0.305.

For RRIRRRPPRLPRPRPRPVDEPRP, the “shrunken log2 fold change” value is 0.0882.

In the case of RRIRSRPPRLPRPRPRPYCLPRP, the “shrunken log2 fold change” value was -0.434.

Consider RRIRIRPPRLPRPRPRPHKEPRP, for which the “shrunken log2 fold change” value turned out to be 0.0692.

On to RRIRDRPPRLPRPRPRPNNSPRP, for which the “shrunken log2 fold change” value was -0.422.

For the sequence RRIRFRPPRLPRPRPRPLQVPRP, the “shrunken log2 fold change” value was -0.135.

For the sequence RRIRFRPPRLPRPRPRPCNSPRP, the “shrunken log2 fold change” value was -0.0848.

For the origin of these results see the supplement of paper PMC9112550, “Optimization of the antimicrobial peptide Bac7 by deep mutational scanning” (BMC Biology, 2022).
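Also: peptides expressed intracellularly from a pBAD plasmid library in pooled LB shake-flask culture, induced with 0.3% L-arabinose, DNA abundance read by NGS, three biological replicates, DESeq2 with apeglm shrinkage.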
